In patent US20140377805A1 (published 2014):

Target: T1, recombinant human IL-1α (human, UniProt P01583 113-271)
T1 sequence (looked up): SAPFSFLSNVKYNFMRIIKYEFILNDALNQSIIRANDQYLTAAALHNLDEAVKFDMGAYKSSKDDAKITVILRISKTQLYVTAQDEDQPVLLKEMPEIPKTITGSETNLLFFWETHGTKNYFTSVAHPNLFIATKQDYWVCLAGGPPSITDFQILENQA
Test: cell-based or functional assay

neutralizing activity in the MRC-5 bioassay, fold less than the chimeric Abs: 3 fold
B1: hIL-1a/bDVD1-Ig (bispecific antibody, human IgG1, kappa)
heavy: not shown
light: NIVLTQSPASLAVSLGQRATISCRASESVDSYGNSYMHWYQQKPGQPPKLLIYLASNLESGVPARFSGSGSRTDFTLTIDPVEADDAATYYCQQNNEDPFTFGSGTKLEIKRNIQMTQTTSSLSASLGDRVTISCRASQDISNCLNWYQQKPDGTVKLLIYYTSRLHSGVPSRFSGSGSGTDYSLTISNLEQEDIATYFCQQGKTLPYAFGGGTKLEINRTVAAPSVFIFPPSDEQLKSGTASVVCLLNNFYPREAKVQWKVDNALQSGNSQESVTEQDSKDSTYSLSSTLTLSKADYEKHKVYACEVTHQGLSSPVTKSFNRGEC
